Results reported in patent US20030143740, “Processes for transposase mediated integration into mammalian cells” (published 2003).

Molecular target: hyperactive Tn5 transposase (EK54, MA56, LP372) expressed from pMIR86 (UniProt Q46731 Q46731:1-476, E54K,M56A,L372P)
Experiment: cell_activity; NIH3T3 co-transfection
Settings: tags: pCI mammalian expression vector; chain copies: 2; PshA I blunt-ended linear transposon, ME inverted repeats at both ends
Text: C. Tn5 transposase expressed in eukaryotic cells increases the number of integration events. Plasmid pMIR86 encoding transposase was co-transfected into NIH3T3 cells with transposon plasmid pMIR136 (pSEAP-Tn). The pMIR136 was either linearized with PshA I to form the transposon (SEAP-Tn), or cut with Eco R V/Sse8387 I to remove Tn5 elements from the transposon (SEAP), or left supercoiled (pSEAP-Tn). Control reactions included the same transposon DNA samples but with pCI-Luc (Promega) instead of pMIR86. […] No increase in colonies was observed when linear transposon DNA lacking flanking recognition elements was used.

B1: SEAP-Tn linear transposon with mosaic ends (dsDNA)
DNA 1: CTGTCTCTTATACACATCT
DNA 2: AGATGTGTATAAGAGACAG
activity: 1.6 fold colonies vs control plasmid
